Results reported in US20230348558A1 (published 2023).

Assays:
[1] = target: T1, HPV16-E5 peptide on HLA-C*05:01 (human); experiment: cytokine release
T1 peptide: NLDTASTTL

[2] = target: T2, HPV16-E5 peptide on HLA-C*08:02 (human); experiment: cytokine release
T2 peptide: NLDTASTTL

[3] = target: T3, HPV16-E2 peptide on HLA-A*02:01 (human); experiment: killing
T3 peptide: TLQDVSLEVYL

B1: E5-NLD-TCR (TCR, V domains shown)
Valpha: AQKVTQAQTEISVVEKEDVTLDCVYETRDTTYYLFWYKQPPSGELVFLIRRNSFDEQNEISGRYSWNFQKSTSSFNFTITASQVVDSAVYFCALSEGGGSQGNLIFGKGTKLSVKP
Vbeta: GVSQSPRYKVTKRGQDVALRCDPISGHVSLYWYRQALGQGPEFLTYFNYEAQQDKSGLPNDRFSAERPEGSISTLTIQRTEQRDSAMYRCASSPELAGPQETQYFGPGTRLLVL
binding result [1]: recognises
binding result [2]: recognises

B2: E2-TLQ-TCR (TCR, V domains shown)
Valpha: AQTVTQSQPEMSVQEAETVTLSCTYDTSESNYYLFWYKQPPSRQMILVIRQEAYKQQNATENRFSVNFQKAAKSFSLKISDSQLGDTAMYFCAFTYGGSQGNLIFGKGTKLSVKP
Vbeta: EPEVTQTPSHQVTQMGQEVILRCVPISNHLYFYWYRQILGQKVEFLVSFYNNEISEKSEIFDDQFSVERPDGSNFTLKIRSTKLEDSAMYFCASRASVGVGTGELFFGEGSRLTVL
binding result [3]: recognises
